Experimental data reported in patent US12540197B2, “Anti-tissue factor antibodies and antibody conjugates, compositions comprising anti-tissue factor antibodies or antibody conjugates, and methods of making and using anti-tissue factor antibodies and antibody conjugates” (SUTRO BIOPHARMA, INC., priority 2023, dated 2026).
Changes are numbered by the printed parent chain.

B1: 2842-B01 HC1/LC2 (antibody, V domains shown)
VH: MQVQVVESGGGLVKPGGSLRLSCAASGFSISSYDMSWIRQAPGKGLEWIGIIGSNGRTYYADSVKGRFTISRNTNENTVYLQMNSLRAEDTAVYYCARGLYDGTGNIWGQGTLVTVSS
VL: MELVMTQSPPTLSLSPGERVTLSCRASQSVYGNNWLSWYQQKPGQAPRLLIYGASKLATSIPARFSGSGSGTQFTLTISSLQPEDFAVYYCQGTYYSGDWYFAFGQGTKVEIK
B2: 2842-B01 HC1/LC3 (antibody)
heavy: MQVQVVESGGGLVKPGGSLRLSCAASGFSISSYDMSWIRQAPGKGLEWIGIIGSNGRTYYADSVKGRFTISRNTNENTVYLQMNSLRAEDTAVYYCARGLYDGTGNIWGQGTLVTVSSASTKGPSVFPLAPSSKSTSGGTAALGCLVKDYFPEPVTVSWNSGALTSGVHTFPAVLQSSGLSLSSVVTVPSSSLGTQTYICNVNHKPSNTKVDKKVEPKSCDKTHTCPPCPAPELLGGPSVFLFPPKPKDTLMISRTPEVTCVVVDVSHEDPEVKFNWYVDGVEVHNAKTKPREEQYNSTYRVVSVLTVLHQDWLNGKEYKCKVSNKALPAPIEKTISKAKGQPREPQVYTLPPSREEMTKNQVSLTCLVKGFYPSDIAVEWESNGQPENNYKTTPPVLDSDGSFLYSKLTVDKSRWQQGNVFSCSVMHEALHNHYTQKSLSLSPGK
light: MDIQMTQSPSSLSASVGDRVTITCQASQSVYGNNWLSWYQQKPGKAPKLLIYGASKLASGVPSRFSGSGSGTDFTLTISSLQPEDFATYYCQGTYYSGDWYFAFGGGTKVEIKRTVAAPSVFIFPPSDEQLKSGTASVVCLLNNFYPREAKVQWKVDNALQSGNSQESVTEQDSKDSTYSLSSTLTLSKADYEKHKVYACEVTHQGLSSPVTKSFNRGEC
modifications: conjugated to LP1 at Y180/F404
B3: 47 (antibody)
heavy: B2 heavy with Q2E, V5L, K14Q, I38V, A61P, N73D, T74N, N75S, E76K, Y80T
light: B2 light with I3L, Q25R, D73Q, G106Q
modifications: pAzMeF at Y180/F404; conjugate
B4: 48 (antibody)
heavy: B2 heavy
light: B2 light
modifications: pAzMeF at Y180/F404; conjugate
B5: 49 (antibody)
heavy: MQVQVQESGPGLVKPPGTLSLTCAVSGFSLSYYGVSWVRQPPGKGLEWIGTIDSSGRTYYNPSLKSRVTISNDNAPNTVSLKLSSVTAADTAVYYCARDFYGWNSGALDIWGQGTLVTVSSASTKGPSVFPLAPSSKSTSGGTAALGCLVKDYFPEPVTVSWNSGALTSGVHTFPAVLQSSGLSLSSVVTVPSSSLGTQTYICNVNHKPSNTKVDKKVEPKSCDKTHTCPPCPAPELLGGPSVFLFPPKPKDTLMISRTPEVTCVVVDVSHEDPEVKFNWYVDGVEVHNAKTKPREEQYNSTYRVVSVLTVLHQDWLNGKEYKCKVSNKALPAPIEKTISKAKGQPREPQVYTLPPSREEMTKNQVSLTCLVKGFYPSDIAVEWESNGQPENNYKTTPPVLDSDGSFLYSKLTVDKSRWQQGNVFSCSVMHEALHNHYTQKSLSLSPGK
light: MDLQLTQSPSTLSASVGDRVTITCRASQSVYSNKYLSWYQQKPGKAPKLLIYKASTLASGVPSRFSGSGSGTEFTLTISSLQPDDFATYYCAAAYSDDSDTAFGQGTKVEIKRTVAAPSVFIFPPSDEQLKSGTASVVCLLNNFYPREAKVQWKVDNALQSGNSQESVTEQDSKDSTYSLSSTLTLSKADYEKHKVYACEVTHQGLSSPVTKSFNRGEC
modifications: pAzMeF at Y180/F404; conjugate

Key:
human TF = molecular target: T1, human TF (Homo sapiens, UniProt P13726); experiment: Biacore off-rate and kinetic binding, human TF; conditions: 25° C.; for Biacore human TF single point off-rate kinetics kd: Table 11, humanized rabbit antibodies, 100 nM antigen; for Biacore human TF kinetics ka / Biacore human TF kinetics kd: Table 12, 1:1 Langmuir
T1 construct: purchased Lake Pharma
T1 sequence (P13726 33-295): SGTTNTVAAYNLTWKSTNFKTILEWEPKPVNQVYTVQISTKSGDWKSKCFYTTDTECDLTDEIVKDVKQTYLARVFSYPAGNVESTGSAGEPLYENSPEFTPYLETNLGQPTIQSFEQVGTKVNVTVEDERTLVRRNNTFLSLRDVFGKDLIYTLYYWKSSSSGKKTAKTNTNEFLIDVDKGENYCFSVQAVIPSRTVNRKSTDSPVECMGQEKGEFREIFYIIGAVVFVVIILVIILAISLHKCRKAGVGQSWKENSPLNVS
Method: (§1) Anti-Fc polyclonal antibodies were immobilized onto a CM4 chip (Cytiva #BR100534) using amine coupling chemistry (Human Antibody Capture Kit, Cytiva #BR100839). The immobilization steps were carried out at a flow rate of 25 μL/min in 1×HBS-EP+buffer (Cytiva #BR100669). The sensor surfaces were activated for 7 min with a mixture of N-hydroxysuccinimide (NHS, 0.05 M) and 1-ethyl-3-(3-dimethylaminopropyl)-carbodiimide (EDC, 0.2 M). The anti-Fc polyclonal antibodies were injected over all 4 flow cells at a concentration of 25 μg/mL in 10 mM sodium acetate, pH 4.5, for 7 min. Ethanolamine (1 M, pH 8.5) was injected for 7 min to block any remaining activated groups. Approximately 6,000 response units (RU) of capture antibody was immobilized on each flow cell.
(§2) Off-rate and kinetic binding experiments were performed at 25° C. using 1×HBS-EP+buffer. Antibodies were injected over the anti-Fc surface at a concentration of 3 μg/mL for 12 seconds at a flow rate of 10 μL/min on flow cells 2, 3 and 4, followed by a buffer wash for 30 seconds at the same flow rate. Single point off-rate analysis was carried out using an antigen concentration of 100 nM. […] After capturing ligand (antibody) on the anti-Fc surface, the analyte (human TF, Lake Pharma; cynomolgus TF, Sino Bio #90885-C08H; mouse TF, R&D Systems #3178-PA) was bound for 180 seconds, followed by a 420 second dissociation phase at a flow rate of 50 μL/min. Between each ligand capture and analyte binding cycle, regeneration was carried out using 2 injections of 10 mM glycine pH 2.0 for 30 seconds at 30 μL/min, followed by a 30 second buffer wash step.
(§3) The data were fit with the Biacore T200 Evaluation software, using a 1:1 Langmuir binding model. KD (affinity, nM) was determined as a ratio of the kinetic rate constants calculated from the fits of the association and dissociation phases.
(§4) Anti-Fc polyclonal antibodies were immobilized onto a CM4 chip (Cytiva #BR100534) using amine coupling chemistry (Human Antibody Capture Kit, Cytiva #BR100839). The immobilization steps were carried out at a flow rate of 25 μL/min in 1×HBS-EP+buffer (Cytiva #BR100669). The sensor surfaces were activated for 7 min with a mixture of NHS (0.05 M) and EDC (0.2 M). The Anti-Fc antibodies were injected over all 4 flow cells at a concentration of 25 ug/ml in 10 mM sodium acetate, pH 4.5, for 7 min. Ethanolamine (1 M, pH 8.5) was injected for 7 min to block any remaining activated groups. Approximately 6,000 response units (RU) of capture antibody was immobilized on each flow cell. Off-rate and kinetic binding experiments were performed at 25° C. using 1×HBS-EP+buffer. Antibodies or ADCs were injected over the anti-Fc surface at a concentration of 3 μg/mL for 12 seconds at a flow rate of 10 μL/min on flow cells 2, 3 and 4, followed by a buffer wash for 30 seconds at the same flow rate. […] After capturing ligand (antibody) on the anti-Fc surface, the analyte (human TF, Lake Pharma; cynomolgus TF, Sino Bio #90885-C08H; mouse TF, R&D Systems #3178-PA) was bound for 180 seconds, followed by a 420 second dissociation phase at a flow rate of 50 μL/min. Between each ligand capture and analyte binding cycle, regeneration was carried out using 2 injections of 10 mM Glycine pH 2.0 for 30 seconds at 30 μL/min, followed by a 30 second buffer wash step. The data was fit with the Biacore T200 Evaluation software, using a 1-1 Langmuir binding model. KD (affinity, nM) was determined as a ratio of the kinetic rate constants calculated from the fits of the association and dissociation phases.

[1] = DSF protein thermal shift assay (melting temperatures TM1/TM2); type: physicochemical; conditions: Table 8, humanized rabbit antibodies; TM2 = Fab domain
Method: (§5) A protein thermal shift assay was carried out by mixing the protein to be assayed with an environmentally sensitive dye (SYPRO Orange, Life Technologies #S-6650) and monitoring the fluorescence of the mixture in real time as it underwent controlled thermal denaturation. Protein solutions between 0.2-2 mg/mL were mixed at a 1:1 volumetric ratio with a solution of SYPRO Orange solution diluted 250-fold in PBS+10% sucrose. 10 μL aliquots of the protein-dye mixture were dispensed in quadruplicate in a 384-well microplate (Bio-Rad #MSP-3852). The plate was sealed with an optically clear sealing film (Bio-Rad #MSB-1001) and placed in a 384-well plate real-time thermocycler (Bio-Rad CFX384 Real Time System). The protein-dye mixture was heated from 25° C. to 95° C., at increments of 0.2° C. per cycle, allowing 3 seconds of equilibration at each temperature before taking a fluorescence measurement. At the end of the experiment, the transition melting temperatures (TM1 and TM2) were determined using the Bio-Rad CFX manager software. TM1 represents the melting temperature of the Fc domain. TM2 represents the melting temperature of the Fab domain.
as §5, with “solutions at 1” for “solutions between 0.2-2”, “a 1-1” for “a 1:1”, “sucrose. 5” for “sucrose. 10”

cynomolgus TF = experiment: Biacore off-rate and kinetic binding, cynomolgus TF; conditions: 25° C.; for Biacore cynomolgus TF single point off-rate kinetics kd: Table 11, humanized rabbit antibodies, 100 nM antigen; for Biacore cynomolgus TF kinetics ka / Biacore cynomolgus TF kinetics kd: Table 12, 1:1 Langmuir
cynomolgus TF, sequence (as listed by the source): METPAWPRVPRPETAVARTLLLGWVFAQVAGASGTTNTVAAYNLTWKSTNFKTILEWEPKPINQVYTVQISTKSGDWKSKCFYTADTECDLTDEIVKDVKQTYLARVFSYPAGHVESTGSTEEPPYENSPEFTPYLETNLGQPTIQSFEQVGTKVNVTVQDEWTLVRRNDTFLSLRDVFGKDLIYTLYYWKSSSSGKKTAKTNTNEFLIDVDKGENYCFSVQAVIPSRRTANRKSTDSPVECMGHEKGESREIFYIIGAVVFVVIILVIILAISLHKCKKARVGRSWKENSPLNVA
Method: as §1, §2, §3, §4

HEK293T = experiment: FACS cell-binding assay on parental HEK293T cells; conditions: Table 16, parental cells
From the text: HEK293T, BxPC3 cells (TF positive) and NCI-H1703 (TF negative) cells were obtained from ATCC (American Type Culture Collection) and maintained in DMEM:F12 (1:1), high glucose (Corning) supplemented with 10% heat-inactivated fetal bovine serum (ThermoScientific), 1× Penicillin/Streptomycin (Corning) and 2 mmol glutamax (Thermo Fisher Scientific). To generate cells that stably expressing human tissue factor (HEK293T-humanTF) or cynomolgus tissue factor (HEK293T-cynoTF), HEK293T cells were transfected with plasmid vectors that contain the corresponding protein sequence and stable clones were selected with puromycin.
For a fluorescence-activated cell sorting (FACS) cell-binding assay, cells were collected by Accutase and counted by the Vi-CELL Cell Viability Analyzersharvested and, then re-suspended in FACS buffer (DPBS buffer supplemented with 1% bovine serum albumin). A total of 200,000 cells in 100 μL were incubated on ice with 100 μL of anti-TF antibodies in each well of a 96-well plate. Cells were washed twice with ice-cold FACS buffer and then incubated on ice for 60 mins with 5 μg/mL Alexa 647-labeled donkey anti-human Fc antibody (Jackson ImmunoResearch). Unstained cells and cells stained with secondary antibody alone were used as controls. Cells were washed twice with FACS buffer and analyzed using a BD FACS Canto system. Geometric mean fluorescence intensities (MFI) were fitted using non-linear regression analysis with one site specific binding equation on GraphPad Prism (GraphPad Software; La Jolla, CA).

Molecule	Biacore human TF single point off-rate kinetics kd (human TF) [s⁻¹]	DSF TM2 (° C.) [1] [°C]	Biacore cynomolgus TF single point off-rate kinetics kd (cynomolgus TF) [s⁻¹]	Biacore human TF kinetics ka (human TF) [M⁻¹ s⁻¹]	Biacore human TF kinetics kd (human TF) [s⁻¹]	HEK293T Bmax (MFI) (HEK293T)	Biacore cynomolgus TF kinetics ka (cynomolgus TF) [M⁻¹ s⁻¹]	Biacore cynomolgus TF kinetics kd (cynomolgus TF) [s⁻¹]
B1	0.000691	82.4	0.00142	–	–	–	–	–
B2	0.00054	87.6	0.00117	–	–	–	–	–
B3	–	–	–	54000	0.000422	1285	82700	0.00166
B4	–	–	–	71200	0.00124	1232	121000	0.00735
B5	–	–	–	62500	0.000865	1366	80800	0.00241
